Source: the supplement of paper PMC11208486
± gives the uncertainty stated by the source.

Assay: specific initial activity, cyclohex-2-enone reduction (U mg-1); higher = more active
Description: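 Specific initial activity of purified ene reductases with 10 mM cyclohex-2-enone and 0.2 mM NAD(P)H in 50 mM sodium phosphate pH 7.4 with 0-45% (v/v) ethanol or methanol, at set reaction temperatures of 25-45 °C. NAD(P)H depletion was followed at 340 nm for 480 s, in triplicate.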

MNPKYKPLFEPFTFKSGVTINNRIAVAPMTHYASNEDGTISEAELDYIIPRSKEMGMVITACANVTPDGKAFPGQPAIHDDSNIPGLKKLAQAIQAQGAKAVVQIHHGGIECPSELVPQQDVVGPSDVFDNGKQIARALTEEEVENIVKAFGEATRRAIEAGFDGVEIHGANGYLIQQFYSPKTNQRTDRWGGSDEKRLAFPLAIVDEVKKAASEHAKGAFLVGYRLSPEEPETPGLTMTETYTLVDALGDKELDYLHISLMDVNSKARRGADPTRTRMDLLNERVGNKVPLIAVGSIHSADDALAVIENGIPLVAMGREILVDPNWTVKVKEGREKQIETVIKGTDKEKYHLPEPLWQAIVNTQGWVPYKD
specific initial activity
Settings	co-solvent: ethanol	co-solvent: methanol
co-solvent concentration (% v/v): 0, reaction temperature 25 °C	0.8 ± 0.08	0.66 ± 0.01
co-solvent concentration (% v/v): 0, reaction temperature 30 °C	0.56 ± 0.02	0.51 ± 0.07
co-solvent concentration (% v/v): 0, reaction temperature 35 °C	0.24 ± 0.07	0.25 ± 0.04
co-solvent concentration (% v/v): 0, reaction temperature 40 °C	0.15 ± 0.13	0.12 ± 0.12
co-solvent concentration (% v/v): 5, reaction temperature 25 °C	0.77 ± 0.03	0.61 ± 0.02
co-solvent concentration (% v/v): 5, reaction temperature 30 °C	0.66 ± 0.07	0.42 ± 0.05
co-solvent concentration (% v/v): 5, reaction temperature 35 °C	0.27	0.2 ± 0.09
co-solvent concentration (% v/v): 5, reaction temperature 40 °C	0.05 ± 0.02	0.09 ± 0.03
co-solvent concentration (% v/v): 10, reaction temperature 25 °C	0.95 ± 0.13	0.69 ± 0.06
co-solvent concentration (% v/v): 10, reaction temperature 30 °C	0.67 ± 0.02	0.41 ± 0.03
co-solvent concentration (% v/v): 10, reaction temperature 35 °C	0.28 ± 0.02	0.14 ± 0.08
co-solvent concentration (% v/v): 10, reaction temperature 40 °C	0.04 ± 0.05	0.04 ± 0.01
co-solvent concentration (% v/v): 15, reaction temperature 25 °C	0.96 ± 0.05	0.65
co-solvent concentration (% v/v): 15, reaction temperature 30 °C	0.85 ± 0.11	0.43 ± 0.06
co-solvent concentration (% v/v): 15, reaction temperature 35 °C	0.21 ± 0.04	0.1 ± 0.07
co-solvent concentration (% v/v): 15, reaction temperature 40 °C	0.03 ± 0.01	0.02 ± 0.01
co-solvent concentration (% v/v): 20, reaction temperature 25 °C	0.99 ± 0.04	0.66 ± 0.05
co-solvent concentration (% v/v): 20, reaction temperature 30 °C	0.75 ± 0.02	0.4 ± 0.03
co-solvent concentration (% v/v): 20, reaction temperature 35 °C	0.17 ± 0.03	0.1 ± 0.02
co-solvent concentration (% v/v): 20, reaction temperature 40 °C	0.03 ± 0.01	0.03 ± 0.01
co-solvent concentration (% v/v): 25, reaction temperature 25 °C	0.88 ± 0.02	0.6 ± 0.01
co-solvent concentration (% v/v): 25, reaction temperature 30 °C	0.63 ± 0.08	0.4 ± 0.02
co-solvent concentration (% v/v): 25, reaction temperature 35 °C	0.08 ± 0.02	0.05
co-solvent concentration (% v/v): 25, reaction temperature 40 °C	0.03 ± 0.02	0.02 ± 0.01
co-solvent concentration (% v/v): 30, reaction temperature 25 °C	0.63 ± 0.02	0.55 ± 0.05
co-solvent concentration (% v/v): 30, reaction temperature 30 °C	0.44 ± 0.03	0.28 ± 0.06
co-solvent concentration (% v/v): 30, reaction temperature 35 °C	0.04	0.04 ± 0.01
co-solvent concentration (% v/v): 30, reaction temperature 40 °C	0.04 ± 0.02	0.03 ± 0.02
co-solvent concentration (% v/v): 35, reaction temperature 25 °C	0.45 ± 0.03	0.44 ± 0.01
co-solvent concentration (% v/v): 35, reaction temperature 30 °C	0.25 ± 0.05	0.21 ± 0.01
co-solvent concentration (% v/v): 35, reaction temperature 35 °C	0.02 ± 0.01	0.02 ± 0.01
co-solvent concentration (% v/v): 35, reaction temperature 40 °C	0.04 ± 0.01	0.02 ± 0.02
co-solvent concentration (% v/v): 40, reaction temperature 25 °C	0.23 ± 0.04	0.2 ± 0.01
co-solvent concentration (% v/v): 40, reaction temperature 30 °C	0.1 ± 0.01	0.11 ± 0.03
co-solvent concentration (% v/v): 40, reaction temperature 35 °C	0.04 ± 0.01	0.07 ± 0.03
co-solvent concentration (% v/v): 40, reaction temperature 40 °C	0.02 ± 0.05	0.03 ± 0.01
co-solvent concentration (% v/v): 45, reaction temperature 25 °C	0.11 ± 0.02	0.04
co-solvent concentration (% v/v): 45, reaction temperature 30 °C	0.06 ± 0.01	0.04 ± 0.01
co-solvent concentration (% v/v): 45, reaction temperature 35 °C	0 ± 0.01	0.04 ± 0.02
co-solvent concentration (% v/v): 45, reaction temperature 40 °C	0.04 ± 0.03	0.05 ± 0.03
